Reference: PMC6241527

Key:
[1] = target: H1 hemagglutinin (A/Solomon Islands/3/06) (influenza A virus (A/Solomon Islands/3/06, H1)); experiment: crystal structure
[2] = target: H7 hemagglutinin (A/Shanghai/2/13) (influenza A virus (A/Shanghai/2/13, H7)); experiment: crystal structure

Substance | stoichiometry N [1] | stoichiometry N [2]
H1 hemagglutinin (A/Solomon Islands/3/06) (natural protein) | 3 | –
H7 hemagglutinin (A/Shanghai/2/13) (natural protein) | – | 3
